{
  "source": "the nanobody polyreactivity screen of Harvey et al. (2022)",
  "data": [
    {"test": "yeast display, Sf9 membrane polyspecificity reagent, FACS + sequencing; frameworks hold sequencing errors", "method_in_brief": "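Using colony PCR, genes from sorted yeast display clones were amplified, then sequenced on MiSeq at 2 × 250 and filtered by CDR length. The clones had been stained with 10% biotinylated, detergent-solubilized Sf9 membrane reagent for 1 hour at 4 °C and sorted by FACS into low and high (top ~1%) gates on anti-HA and streptavidin fluorescence. Polyreactivity labels come from the gate of origin.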", "values": [
      {"sequence": "QVQLVESGGGLVQAGGSLRLSCAASGRTFYGNGMGWYRQAPGKDRELVAAISWSGGSTYYADSVKGRFTISRDNAKNTVYLQMNSLKPEDTAVYYCAAAYRSFIIGRWYDYWGQGTQVTVSS", "polyreactivity (PSR sort gate)": "low polyreactivity"},
      {"sequence": "QVQLVESGGGLVQAGGSLRLSCAASGRTFYGNVMGWYRQAPGKERELVAAISSRGSRTYYADSVKGRFTISRDNAKNTVYLQMNSLKPEETAVYYCNTYVRNHGLAGPDDYWGQGTLVTVSS", "polyreactivity (PSR sort gate)": "high polyreactivity"},
      {"sequence": "QVQLVESGGGLVQAGGSLRLSCAASGRTFYGYAMGWYRPAPGKERELVAAIDRGGSTDYADSVKGRFTISRDNAKNTVYLQLNSLKTEDTAVYYCAKGYDYYGRRYYYWGQGTQVTVSS", "polyreactivity (PSR sort gate)": "high polyreactivity"},
      {"sequence": "QVQLVESGGGLVQAGGSLRLSCAASGRTFYGYAMGWYRQAPGKERELVASISWSTGSTHYADSVKGRFTISRDNAKNTVYLQMNSLKPEDTAVYYCAAPFWRDSYVQIDYDYWGQGTQVTVSS", "polyreactivity (PSR sort gate)": "low polyreactivity"},
      {"sequence": "QVQLVESGGGLVQAGGSLRLSCAASGRTFYGYAMGWYRQAPGKERELVASISYSGGNTYYADSVKGRFTISRDIAKNTVYLQMNSLKPEDTAVYYCAAEVVFFGWHYDYWGQGTQVTVSS", "polyreactivity (PSR sort gate)": "high polyreactivity"},
      {"sequence": "QVQLVESGGGLVQAGGSLRLSCAASGRTFYGYAMGWYRQAPGKERELVAVITRDGSTNYADSVKGRFTISRDNAKNTVYLQMNSLKPEDTAVYYCAAERLAYRVRWRYNQEDYWGQGTQVTVSS", "polyreactivity (PSR sort gate)": "high polyreactivity"},
      {"sequence": "QVQLVESGGGLVQAGGSLRLSCAASGRTFYHNAMGWYRQAPGKERELVASNRWSGGSTYADSVNGRFTISRDNAKNTVYLQMNSLKPEDTAVYYCARRYYRTGYWEPFIALNGYWGQGTKVTVSS", "polyreactivity (PSR sort gate)": "high polyreactivity"},
      {"sequence": "QVQLVESGGGLVQAGGSLRLSCAASGRTFYHYAMGWYRQAPGKEREFVAAISVSGGRTYYADSVKGRFTISRDNAKNTVYLQMNSLKPEDTAVYYCAARSGAQRGGGYWGQGTQVTVSS", "polyreactivity (PSR sort gate)": "high polyreactivity"},
      {"sequence": "QVQLVESGGGLVQAGGSLRLSCAASGRTFYIYAMGWYRQAPGKERELVAAISGSGGSTYYADSVKGRFTISRDNAKNTVYFQMNSLKPEDTAVYYCATKLRRSRYVRYDYWGQGTQVTVSS", "polyreactivity (PSR sort gate)": "high polyreactivity"},
      {"sequence": "QVQLVESGGGLVQAGGSLRLSCAASGRTFYIYAMGWYRQAPGKERELVAAITSVGSTNYADSVKGRFTISRDNAKNTVYLQMNSLKPEDTAVYYCAAASTEGTSGDYDYWGQGTQVTVSS", "polyreactivity (PSR sort gate)": "low polyreactivity"},
      {"sequence": "QVQLVESGGGLVQAGGSLRLSCAASGRTFYIYTMGWYRQAPGKERELVAAISSSGDSTYYADSVKGRFTISRDNAKNTVFLQMNPLKPEDTAVYYCAAYPTYPDEYWGQGTQVTVSS", "polyreactivity (PSR sort gate)": "low polyreactivity"},
      {"sequence": "QVQLVESGGGLVQAGGSLRLSCAASGRTFYKNTMGWYREAPGKEREMVATISQRGGSTYYADSVKGRFTISRDNAKNTVFLQMNSLKPEDTAVYYCYARHYYIWWRSPTRTAMNYWGQGTQVTVSS", "polyreactivity (PSR sort gate)": "high polyreactivity"},
      {"sequence": "QVQLVESGGGLVQAGGSLRLSCAASGRTFYKNTMGWYRQAPGKERELVAGISQRGGRTYYADSVKGRFTISRDNANYTVYLQMNSLKPEDTAVYYCAVRSYGHGFDYWGQGNQVTVSS", "polyreactivity (PSR sort gate)": "high polyreactivity"},
      {"sequence": "QVQLVESGGGLVQAGGSLRLSCAASGRTFYKYTMGWYRQAPGKERELVAAITTSGGGTYYADSVKGRFTISRDNAKNTVYIQMNSLKPEDTAVYYCAARYRELRTEYYYWGQGTQVTVSA", "polyreactivity (PSR sort gate)": "high polyreactivity"},
      {"sequence": "QVQLVESGGGLVQAGGSLRLSCAASGRTFYLNAMGWYRQAPGKERELVAAISRNGGSTYYADSVKGRFTISRDNAKNTVYLQMNSLKPEDTAVYYCNKNWLGWADPSLDKRYDYWGQGTQVTVSS", "polyreactivity (PSR sort gate)": "high polyreactivity"},
      {"sequence": "QVQLVESGGGLVQAGGSLRLSCAASGRTFYLNAMGWYRQAPGKERELVAAITSSGGRTYYADSVKGRFTISRDNAKNTVYLQMNSLKPEDTAVYYCAAVVSSKPSFYWGQGTQVTVSS", "polyreactivity (PSR sort gate)": "low polyreactivity"},
      {"sequence": "QVQLVESGGGLVQAGGSLRLSCAASGRTFYLYAMGWYRQAPGKEREFVAAISKRGGSTYYADSVKGRFTISRDNAKNTVYLQMNSLKPEDTAVYYCAAEVFRYRLNQTPTYRGDYWGQGTQVTVSS", "polyreactivity (PSR sort gate)": "high polyreactivity"},
      {"sequence": "QVQLVESGGGLVQAGGSLRLSCAASGRTFYLYAMGWYRQAPGKERELVAAITSAGSTNYADSVKGRFTISRDNAKNTVYLQMNSLKPEDSAVYYCNAYKRGYLYRYNYWGQGTQVTLSS", "polyreactivity (PSR sort gate)": "high polyreactivity"},
      {"sequence": "QVQLVESGGGLVQAGGSLRLSCAASGRTFYLYAMGWYRQAPGKERELVAAITSGGSTYYADSVKGRFTISRDNAKNTVYLQMNSLKPEDTAVYYCAAYAYLTAGTSRRRGYWGQGTQVTVSS", "polyreactivity (PSR sort gate)": "high polyreactivity"},
      {"sequence": "QVQLVESGGGLVQAGGSLRLSCAASGRTFYLYAMVCYRQAPGKERELVAAITNRGGSTYYADSVKGRFTISRDNAKNTVYLQMNSLKPEDTAVYYCAAQVSVYRGGYGYWGQGTQVTVSS", "polyreactivity (PSR sort gate)": "high polyreactivity"},
      {"sequence": "QVQLVESGGGLVQAGGSLRLSCAASGRTFYLYTMGWYRQAPGKERELVAAISRGGRTYADSVKGRFTISRDNAKNTVYLQMNSLKPDDTAVYYCAAESVYHGWSYQHGKGDYWGQGTQVTVSS", "polyreactivity (PSR sort gate)": "low polyreactivity"},
      {"sequence": "QVQLVESGGGLVQAGGSLRLSCAASGRTFYLYTMGWYRQAPGKERELVAAISRGGRTYADSVKGRFTISRDNAKNTVYLQMNSLKPEDTAVYYCAAESVYQGWSYQHGKGDYWGQGTQVTVSS", "polyreactivity (PSR sort gate)": "low polyreactivity"},
      {"sequence": "QVQLVESGGGLVQAGGSLRLSCAASGRTFYNYAMGWYRQAPGKERELVAAISWSDGTTYYADSVKGRFTISRDNAKNTVYLQMNSLKPEDTAVYYCAAEFESSFALGFYYWGQGTQVTVSS", "polyreactivity (PSR sort gate)": "high polyreactivity"},
      {"sequence": "QVQLVESGGGLVQAGGSLRLSCAASGRTFYNYAMGWYRQAPGKERELVAAITRGGSTYYADSVKGRFTISRDNAKNTVYLQMNSLKPEDTAVYYCNAYYYIPFEGRGYSKMDYWGQGTQVTVSS", "polyreactivity (PSR sort gate)": "high polyreactivity"},
      {"sequence": "QVQLVESGGGLVQAGGSLRLSCAASGRTFYNYAMGWYRQAPGKERELVASIRKNGGSTYYADSVKGRFTISRDNAKNTVYLQMNSLKPEDTAVYYCDARYWGISRIFPSKYDYWGQGTQVTVSS", "polyreactivity (PSR sort gate)": "high polyreactivity"},
      {"sequence": "QVQLVESGGGLVQAGGSLRLSCAASGRTFYPNAMGWYRQAPGKERELVAAITWRSGSTYYADSVKGRFTISRDNAKNTVYLPMNSLKPEDTAVYYCNADSDYPYYPGKFDYWGQGTQVTVSS", "polyreactivity (PSR sort gate)": "low polyreactivity"},
      {"sequence": "QVQLVESGGGLVQAGGSLRLSCAASGRTFYPYAMGWYRQAPGKERELVAAIRSSGGTTYYADSVKGRFTISRDNAKNTVYLQMNSLKPEDTAVYYCAAYVDRQGGYYWGQGTQVTVSS", "polyreactivity (PSR sort gate)": "high polyreactivity"},
      {"sequence": "QVQLVESGGGLVQAGGSLRLSCAASGRTFYPYAMGWYRQAPGKERELVAAISSSGGSTYYADSVKGRFTISRDNAKNTVYLQMNSLKPEDTAVYYCAAAVYLQYLDDPTYGYWGQGTQVTVSS", "polyreactivity (PSR sort gate)": "high polyreactivity"},
      {"sequence": "QVQLVESGGGLVQAGGSLRLSCAASGRTFYPYAMGWYRQAPGKERELVAAITISVGSTYYADSVKGRFTISRDNAKNTVYLQMNSLNPEDTAVYYCAAANTPEYDYWGQGTQVTVSS", "polyreactivity (PSR sort gate)": "low polyreactivity"},
      {"sequence": "QVQLVESGGGLVQAGGSLRLSCAASGRTFYPYAMGWYRQAPGKERELVARISRGGRTNYADSVKGRFTISRDNAKNTVYLQMNSLKPEDTAVYYCAADYYGSYFITEDYWGQGTQVTVSS", "polyreactivity (PSR sort gate)": "low polyreactivity"},
      {"sequence": "QVQLVESGGGLVQAGGSLRLSCAASGRTFYPYARGWYREAPGKERELVAAISSNGVLTYYADSVKGRFTISRDNAKKSVYLQMNSLKPEDTAVYYCAARKPYVYHLDSWGQGTQVTVSS", "polyreactivity (PSR sort gate)": "high polyreactivity"},
      {"sequence": "QVQLVESGGGLVQAGGSLRLSCAASGRTFYRKAMGWYIQAPGKEREFVAVISVSGGSTYYADSVKGRFTISRDNAKITVYLQMNSLKPEDTAVYYCAKRGPVRKTAYDYWGQGTQVTVSS", "polyreactivity (PSR sort gate)": "low polyreactivity"},
      {"sequence": "QVQLVESGGGLVQAGGSLRLSCAASGRTFYRNAMGWYIQAPGKERELVAAITWSGVSTYYADSVKGRFTISRDNAKNTVYLQMNSLKPEDTAVYYCARGRVLRNGHYFQLRNYDYWGQGTQVTVSS", "polyreactivity (PSR sort gate)": "high polyreactivity"},
      {"sequence": "QVQLVESGGGLVQAGGSLRLSCAASGRTFYRNAMGWYRQAPGIERELVAVISQRGGRTFYADSVKGRFTISRDNAKNTVYLQMNSLKPEDTAVYYCAAPTQSYAHQGFGYWGQGTQVTVSS", "polyreactivity (PSR sort gate)": "high polyreactivity"},
      {"sequence": "QVQLVESGGGLVQAGGSLRLSCAASGRTFYRNAMGWYRQAPGKERELVAAITTSGGRTYYADSVKGRFTISRDNAKNTVYLQMNSLKPEDTAVYYCNAVYYGRTYASGYDYWGQGTQVTVSS", "polyreactivity (PSR sort gate)": "high polyreactivity"},
      {"sequence": "QVQLVESGGGLVQAGGSLRLSCAASGRTFYRNAMGWYRQAPGKERELVATINSGGSTHYADSVKGRFTISRDNAKNSVYLQMNSLKPEDTAVYYCAARSPSYRGSLSYYWGHGTQVTVSS", "polyreactivity (PSR sort gate)": "high polyreactivity"},
      {"sequence": "QVQLVESGGGLVQAGGSLRLSCAASGRTFYRNAMGWYRQAPGKERELVATITRRGGSTYYADSVKGRFTISRDNAKNTVYLQMISLKPEDTAVYYCAAGSKDLYRPYDYWGQGTQVTVSS", "polyreactivity (PSR sort gate)": "high polyreactivity"},
      {"sequence": "QVQLVESGGGLVQAGGSLRLSCAASGRTFYRNAMGWYRQAPGKERELVATITRRGGSTYYADSVKGRFTISRDNAKNTVYLQMNSLKPEDTAVYYCAAGSKDLYRPYDYWGQGTQVTVSS", "polyreactivity (PSR sort gate)": "high polyreactivity"},
      {"sequence": "QVQLVESGGGLVQAGGSLRLSCAASGRTFYRNDMVWYRQSPGKERELVARITSGGSTNYADSVKGRFTISRDNAKNTVYLQMNSLKPEDTGVYYCAAVSRYYPYGYWGQGTQVTVSS", "polyreactivity (PSR sort gate)": "high polyreactivity"},
      {"sequence": "QVQLVESGGGLVQAGGSLRLSCAASGRTFYRYAMGWYRHAPGKERELVASITRGTSTNYADSVKGRFTISRDNAKNTVYLQMNSLKPEDTAVYYCNRRIFGGQRMYYWGQGTQVTVSS", "polyreactivity (PSR sort gate)": "high polyreactivity"}
    ]}
  ]
}
